Test results taken from article PMC10917357, “Specific protein-RNA interactions are mostly preserved in biomolecular condensates”.

Legend:
PTBP1 (C250S/C251S) [1] = target: T1, PTBP1 (C250S/C251S) (Homo sapiens, UniProt P26599-1 1-531, C250S;C251S); assay: UV cross-linking MS (LLPS-CLIR-MS); dispersed and condensed phases; RRM cross-links (H411, H457); Assay buffers largely not in the material; N protein in 20 mM sodium phosphate pH 6.0, 50 mM NaCl (fig. S7 dispersed mimic 300 mM NaCl); UV 254 nm; turbidity of N at room temperature; NMR 303 or 310 K; settings: protein: recombinant; label: 13C/15N-labeled and unlabeled 1:1; single strand
[2] = target: SARS-CoV-2 nucleocapsid (N) (SARS-CoV-2, UniProt P0DTC9 1-419); assay: UV cross-linking MS (LLPS-CLIR-MS); Assay buffers largely not in the material; N protein in 20 mM sodium phosphate pH 6.0, 50 mM NaCl (fig. S7 dispersed mimic 300 mM NaCl); UV 254 nm; turbidity of N at room temperature; NMR 303 or 310 K; settings: protein: recombinant; tags: N-terminal His6 removed by TEV; chain copies: 2; label: 18O4-ATP post-digestion labeling; hairpin with internal loops
FUS = FUS (UniProt P35637 1-526); assay: UV cross-linking MS (LLPS-CLIR-MS); 0.075 and 0.1 eq RNA, 20 uM FUS; RRM (M321, Y325) and region C-terminal to ZnF; Assay buffers largely not in the material; N protein in 20 mM sodium phosphate pH 6.0, 50 mM NaCl (fig. S7 dispersed mimic 300 mM NaCl); UV 254 nm; turbidity of N at room temperature; NMR 303 or 310 K; settings: protein: recombinant; tags: GB1-His6 removed by TEV; label: isotope-labeled; two hairpins
PTBP1 (C250S/C251S) [3] = target: T1, PTBP1 (C250S/C251S); assay: UV cross-linking MS (LLPS-CLIR-MS); dispersed and condensed phases; Assay buffers largely not in the material; N protein in 20 mM sodium phosphate pH 6.0, 50 mM NaCl (fig. S7 dispersed mimic 300 mM NaCl); UV 254 nm; turbidity of N at room temperature; NMR 303 or 310 K; settings: protein: recombinant; label: isotope-labeled; hairpin

## GGGAGAUCUCUAAAAAUCUCUAAAAAUCUCUAAAAA (ssRNA) [3xUCUCU]
PTBP1 (C250S/C251S) [1]
  binding result: binds

## GGUUCACCGAGGCCACGCGGAGUACGAUCGAGUGUACAGUGAACC (structured_RNA) [s2m]
[2]
  binding result: binds

B1: U1-SL34 (structured_RNA)
RNA: GGGAUCCGAUUUCCCCAAAUGUGGGAAACUCGACUGCAUAAUUUGUGGUAGUGGGGGACUGCGUUCGCGCUUUCCCCUG
FUS
  binding result: binds

## GGGGGACUGCGUUCGCGCUUUCCC (structured_RNA) [U1-SL4]
PTBP1 (C250S/C251S) [3]
  binding result: binds
